The text below walks through data of patent publication US7919300B2, “Glucose isomerase mutants” (priority 2004, dated 2011).

Substrate in the series: OC[C@H]1OC(O)[C@H](O)[C@@H](O)[C@@H]1O
Put plainly: Measurement of kinetic parameters of glucose isomerase mutant MGI-4 with D-glucose as substrate. It counts as biochemical, Thermoanaerobacterium saccharolyticum. To be noted: pH 6.5, 20 mM sodium phosphate, 250 μM CoCl2, 5 mM MgCl2, 10 minutes. The protocol:
Fragment AFSR was amplified using primer pair 182AF (see Table 1 below) and 187SR (see Table 1) on the following condition: 20 mM Tris-HCl (pH 8.8), 10 mM KCl, 10 mM (NH4)2SO4, 2 mM MgSO4, 0.1% Triton X-100, 0.4 μM Primer 182AF and 0.4 μM Primer 187SR, 50 μM DATP, 50 μM dTTP, 50 μM dCTP, 50 μM dGTP, 1.5 U Pfu DNA polymerase, 20 ng pGEMT-TS, and the total volume was adjusted to 50 μl with distilled water. The PCR amplification program for the reaction was: 95° C., 3 min; then 35 cycles of 95° C., 50 seconds, 52° C., 30 seconds, 72° C., 180 seconds; and with an additional 5 minutes at 72° C. at the end of the reaction. The PCR product, fragment AFSR, was separated on 1% agarose gel and recovered using QIAquick Gel Extraction Kit (QIAGEN, German). Fragment SFQR was amplified using primer pair 187SF (Example 4) and 299QR (Example 5) on the following condition: 20 mM Tris-HCl (pH 8.8), 10 mM KCl, 10 mM (NH4)2SO4, 2 mM MgSO4, 0.1% Triton X-100, 0.4 μM Primer 187SF and 0.4 μM Primer 299QR, 50 μM dATP, 50 μM dTTP, 50 μM dCTP, 50 μM dGTP, 1.5 U Pfu DNA polymerase, 20 ng pGEMT-TS, and the total volume was adjusted to 50 μl with distilled water. The PCR amplification program for the reaction was: 95° C., 3 min; then 35 cycles of 95° C., 50 seconds, 52° C., 30 seconds, 72° C., 180 seconds; and with an additional 5 minutes at 72° C. at the end of the reaction. The PCR product, fragment SFQR, was separated on 1% agarose gel and recovered using QIAquick Gel Extraction Kit (QIAGEN, German). The full-length glucose isomerase gene was then amplified on the following condition: 20 mM Tris-HCl (pH 8.8), 10 mM KCl, 10 mM (NH4)2SO4, 2 mM MgSO4, 0.1% Triton X-100, 0.4 μM Primer T1 and 0.4 μM Primer T2, 50 μM dATP, 50 μM dTTP, 50 μM dCTP, 50 μM dGTP, 1.5 U Pfu DNA polymerase, 20 ng fragment T1FR (Example 2), 20 ng fragment FFAR (Example 6), 20 ng […], 20 ng fragment SFQR and 20 ng fragment QFT2 (Example 5), and the total volume was adjusted to 50 μl with distilled water. The PCR amplification program for the reaction was: 95° C., 3 min; then 35 cycles of 95° C., 50 seconds, 52° C., 30 seconds, 72° C., 180 seconds; and with an additional 5 minutes at 72° C. at the end of the reaction. The full-length mutant MGI-4 was separated on 1% agarose gel and recovered using QIAquick Gel Extraction Kit (QIAGEN, German). Plasmid pGEMT-MGI-4, generated after ligation between MGI-4 and pGEMT-Easy, was transformed into competent E. coli HB101 and the transformants were screened for clones of glucose isomerase activity on 1% MacConkey agar plates containing 1% D-xylose and 50 mg/L ampicillin. pGEMT-MGI-4 DNA was then isolated from the positive clones and sequenced. The sequencing results confirmed that the desired site-directed mutations were correctly introduced. Its amino acid sequence was shown as SEQ ID NO.: 32 (see the Sequence Listing below).
The isolation and purification of glucose isomerase mutant MGI-4 were as described in Example 9, except the plasmid used was pGEMT-MGI-4. The partially purified enzyme was shown on FIG. 1. Other glucose isomerase mutants were also isolated and purified as described in Example 9.

B1: Thermoanaerobacterium saccharolyticum glucose isomerase mutant MGI-4 (W139F/R182A/F187S/T299Q), SEQ ID NO.: 32 (Thermoanaerobacterium saccharolyticum; … (protein)
chain: MNKYFENVSKIKYEGPKSNNPYSFKFYNPEEVIDGKTMEEHLRFSIAYWHTFTADGTDQFGKATMQRPWNHYTDPMDIAKARVEAAFEFFDKINAPFFCFHDRDIAPEGDTLRETNKNLDTIVAMIKDYLKTSKTKVLFGTANLFSNPRFVHGASTSCNADVFAYSAAQVKKALEITKELGAENYVSWGGREGYETLLNTDMELELDNFARFLHMAVDYAKEIGFEGQFLIEPKPKEPTKHQYDFDVANVLAFLRKYDLDKYFKVNIEANHATLAFHDFQHELRYARINGVLGSIDANQGDMLLGWDTDQFPTDIRMTTLAMYEVIKMGGFDKGGLNFDAKVRRASFEPEDLFLGHIAGMDAFAKGFKVAYKLVKDGVFDKFIEERYASYKEGIGADIVSGKADFKSLEKYALEHSQIVNKSGRQELLESILNQYLFAE
Turning to B1, under “other: MGI-4, 65° C., 65.0 °C”, the Km – broadly, the concentration of substrate that gives half-maximal velocity – amounted to 27.9 mM; the kcat (commonly the number of substrate molecules converted per active site and unit of time at saturation) is 16.817 s⁻¹; the kcat/Km (in general, the turnover number divided by the Michaelis constant) was determined as 602 M⁻¹ s⁻¹. Besides, for the setting “other: MGI-4, 80° C., 80.0 °C”, the Michaelis constant (Km) is on record as 51.3 mM, the kcat was determined as 49.685 s⁻¹ and the specificity constant (kcat/Km) was found to be 968 M⁻¹ s⁻¹.
